Key:
[1] = molecular target: MP^(A (E9D)) D9ADPr1; assay: fluorescence polarisation
[2] = molecular target: MP^A E9ADPr1; assay: fluorescence polarisation
[3] = molecular target: MP^A R5ADPr1; assay: fluorescence polarisation
[4] = molecular target: MP^A S7ADPr1; assay: fluorescence polarisation
[5] = system: PARP14^cat; assay: PARP14cat mono-ADP-ribosylation of substrate peptides, RP-HPLC/MS; assay type: biochemical; conditions: after PARP14^cat reaction condition optimization, NAD+, listed as MP^B

Substance	Kd [1]	Kd [2]	Kd [3]	Kd [4]	conversion to mono-ADP-ribosylated product (ADPr1) [5]
pan-ADP-ribose detection reagent (an Af1521 macrodomain-Fc region fusion) (Fc fusion)	1810 nM	732 nM	15.6 nM	1170 nM	–
GWTARKSAEVGAGK [MP^A]	–	–	–	–	no activity was detected
